B1: PA0810, L-2-haloacid dehalogenase from Pseudomonas aeruginosa PAO1 (enzyme)
chain: MRAILFDVFGTLVDWRSSLIEQFQALERELGGTLPCVELTDRWRQQYKPAMDRVRNGQAPWQHLDQLHRQSLEALAGEFGLALDEALLQRITGFWHRLRPWPDTLAGMHALKADYWLAALSNGNTALMLDVARHAGLPWDMLLCADLFGHYKPDPQVYLGACRLLDLPPQEVMLCAAHNYDLKAARALGLKTAFIARPLEYGPGQSQDLAAEQDWDLIASDLLDLHRQLAASA

Assays:
Bpro0530 = settings: 100 mM Tris-SO4, pH 8.5, 30 °C; defluorination
ST2570 = ST2570 (Sulfurisphaera tokodaii, UniProt Q96XE7); settings: 100 mM Tris-SO4, pH 8.5, 30 °C; defluorination
Rha0230 = Rha0230 (Rhodococcus jostii, UniProt Q0SK70); settings: 100 mM Tris-SO4, pH 8.5, 30 °C; defluorination
O=C(O)CCl = test: purified protein; settings: pH 8.5; 30.0 °C
crystal structure = target: the molecule itself; test: crystal structure

| Molecule | Km (O=C(O)CCl) | kcat/Km (O=C(O)CCl) | also measured |
| --- | --- | --- | --- |
| O=C(O)CF [fluoroacetate] |  |  | Km (Bpro0530): 20.3 ± 0.3 mM; Km (ST2570): 2.4 ± 0.7 mM; Km (Rha0230): 18 ± 3 mM |
| ST2570 (Sulfurisphaera tokodaii str. 7) | 0.00353 ± 3e-05 mM | 73000 ± 1100 M⁻¹ s⁻¹ |  |
| Rha0230 (Rhodococcus jostii RHA1; Y61F) | 14 ± 2 mM | 73 ± 13 M⁻¹ s⁻¹ |  |
| Rha0230 (Rhodococcus jostii RHA1) | 18 ± 2 mM | 37 ± 6 M⁻¹ s⁻¹ |  |
| B1 |  |  | binding result (crystal structure): binds |

From paper PMC10281000 (Chembiochem : a European journal of chemical biology, 2021)
